Converted amounts (≈) assume the structure as drawn. Bounds are passed on as bounds.

These results are taken from US6589738B1, “Genes essential for microbial proliferation and antisense thereto” (priority 1999, dated 2003).

Data set [1] relates to Bacterial cells containing IPTG-inducible antisense nucleic acid against rplL and rplJ (50S ribosomal subunit proteins). Nature of the data set: microbe, parasite or virus in culture. In kind it is cell-based, E. coli. Conditions: Escherichia coli, read-out: IC50 (+IPTG). On the procedure: Antibiotics of various chemical classes and modes of action were purchased from Sigma Chemicals (St. Louis, Mo.). Stock solutions were prepared by dissolving each antibiotic in an appropriate aqueous solution based on information provided by the manufacturer. The final working solution of each antibiotic contained no more than 0.2% (w/v) of any organic solvent. To determine their potency against a bacterial strain engineered for expression of an antisense against a proliferation-required gene encoding 50S ribosomal protein, each antibiotic was serially diluted two or three fold in growth medium supplemented with the appropriate antibiotic for maintenance of the anti-sense construct. […]
Cells for the assay were prepared as follows. […] The plate was then loaded into a plate reader, incubated at constant temperature, and cell growth was monitored in each well by the measurement of light scattering at 595 nm. Growth was monitored every 5 minutes until the cell culture attained a stationary growth phase. For each concentration of antibiotic, a percentage inhibition of growth was calculated at the time point corresponding to mid-exponential growth for the associated control wells (no antibiotic, plus or minus IPTG). For each antibiotic and condition (plus or minus IPTG), a plot of percent inhibition versus log of antibiotic concentration was generated and the IC50 determined.

The subject of a further data set is Escherichia coli. Put plainly: Growth inhibition after IPTG induction of antisense RNA expression (Example 1; score of Example 12). In kind it is cell-based. The settings on record: for effect of antisense expression on E. coli growth: 1 mM IPTG. On the procedure: (§1) To study the effects of transcriptional induction in liquid medium, growth curves were carried out by back diluting cultures 1:200 into fresh media with or without 1 mM IPTG and measuring the OD450 every 30 minutes (min). To study the effects of transcriptional induction on solid medium, 10^2, 10^3, 10^4, 10^5, 10^6, 10^7 and 10^8 fold dilutions of overnight cultures were prepared. Aliquots of from 0.5 to 3 μl of these dilutions were spotted on selective agar plates with or without 1 mM IPTG. After overnight incubation, the plates were compared to assess the sensitivity of the clones to IPTG.
Of the numerous clones tested, some clones were identified as containing a sequence that inhibited E. coli growth after IPTG induction. Accordingly, the gene to which the inserted nucleic acid sequence corresponds, or a gene within the operon containing the inserted nucleic acid, may be required for proliferation in E. coli.
(§2) Molecule No. EcXA059, encoding a portion of the ypjA gene of Escherichia coli, was either transformed directly into Enterobacter cloacae, Salmonella typhimurium and/or Klebsiella pneumoniae or subcloned into an expression vector functional in these species and the subclones transformed into these organisms. Suitable expression vectors are well known in the art. These expression vectors were introduced into Enterobacter cloacae, Salmonella typhimurium and/or Klebsiella pneumoniae cells that were then assayed for growth inhibition according to the method of Example 1. After growth in liquid culture, cells were plated at various serial dilutions and a score determined by calculating the log difference in growth for INDUCED vs. UNINDUCED antisense RNA expression as determined by the maximum 10 fold dilution at which a colony was observed. If there was no effect of antisense RNA expression in one organism, the clone is given a score of zero “0” in that organism. In contrast, a score of “8” means that 10^8 times more cells were required to observe a colony formed on the induced state than in the non-induced state under the conditions used and in that organism.

For another data set, the system named is Salmonella typhimurium. Nature of the data set: Growth inhibition by E. coli antisense nucleic acids in another microorganism, INDUCED vs. UNINDUCED (Example 12, Table V). In kind it is cell-based. Conditions: for Sensitivity of S. typhimurium to antisense nucleic acid (growth inhibition, INDUCED vs. UNINDUCED): antisense RNA expression induced with IPTG, serial dilution plating. How it is done:
as §1, §2
(§3) Expression vectors which inhibited growth of E. coli upon induction of antisense RNA expression with IPTG were transformed directly into Enterobacter cloacae, Klebsiella pneumonia or Salmonella typhimurium. The transformed cells were then assayed for growth inhibition according to the method of Example 1. After growth in liquid culture, cells were plated at various serial dilutions and a score determined by calculating the log difference in growth for INDUCED vs. UNINDUCED antisense RNA expression as determined by the maximum 10 fold dilution at which a colony was observed. If there was no effect of antisense RNA expression in a microorganism, the clone is minus in Table V below. In contrast, a positive in Table V below means that at least 10 fold more cells were required to observe a colony on the induced plate than on the non-induced plate under the conditions used and in that microorganism.

Another data set concerns Klebsiella pneumoniae. The data set is described as above. In kind it is cell-based. Conditions: for Sensitivity of K. pneumoniae to antisense nucleic acid (growth inhibition, INDUCED vs. UNINDUCED): antisense RNA expression induced with IPTG, serial dilution plating. How it is done: as §1, §2, §3
In a further data set the test system is Enterobacter cloacae. The description is as above. In kind it is cell-based. Conditions: for Sensitivity of E. cloacae to antisense nucleic acid (growth inhibition, INDUCED vs. UNINDUCED): antisense RNA expression induced with IPTG, serial dilution plating. On the procedure:
as §1, §2, §3

Usually IC50 stands for the midpoint of a concentration-inhibition curve. Consider `NC[C@H]1O[C@H](O[C@H]2[C@H](O)[C@@H](O[C@H]3O[C@H](CO)[C@@H](O)[C@H](N)[C@H]3O)[C@H](N)C[C@@H]2N)[C@H](N)C[C@@H]1O` [Tobramycin], for which, in data set [1], the IC50 is 0.0705 µg/mL (≈ 0.151 µM).

B1: EcXA083: antisense clone insert, E. coli gene hrpB (nucleic acid, listed as Escherichia coli)
DNA: CGGCTTAGCGCGTCGTTGGCATCGAGCATCGCTCCCATGCCGTTTGCCAGTTGATAGCGTCCATCTTGCC
In the case of B1, the “effect of antisense expression on E. coli growth” value (from here on “effect of antisense expression”) in the data set on Escherichia coli is on record as “reduction in cell growth”.

B2: EcXA072: antisense clone insert, E. coli gene recJ (nucleic acid, listed as Escherichia coli)
DNA: GATTTTTACCGGATTAATTTTAAACATGGTCTGATTTCTTTTATTGAGCTAGTCAAAATGCGGTGATAAGAGCGGGATTGTCCCAATCCACGCTCTTTTTTATAGAGAAGATGACGCTAAATTGGCCAGATATTGTCGATGATAATTTG
For the molecule B2, in the data set with Salmonella typhimurium, the “Sensitivity of S. typhimurium to antisense nucleic acid (growth inhibition, INDUCED vs. UNINDUCED)” value is “+ (a positive in Table V below means that at least 10 fold more cells were required to observe a colony on the induced plate than on the non-induced plate)”. In addition, the “Sensitivity of K. pneumoniae to antisense nucleic acid (growth inhibition, INDUCED vs. UNINDUCED)” value in the data set with Klebsiella pneumoniae is “+ (a positive in Table V below means that at least 10 fold more cells were required to observe a colony on the induced plate than on the non-induced plate)”. For the same molecule, the “effect of antisense expression” value in the data set on Escherichia coli is “reduction in cell growth”.

B3: EcXA104: antisense clone insert, E. coli gene hsdS (nucleic acid, listed as Escherichia coli)
DNA: GACGCGGCGAACGATTTCGGCTTGTTCTTTTACTGGAGGTAATAAAACAACTTGGGATTTGATATCTTTTCCTGAAATACCTTTTTGACCAGAAGTTGTTTTCACGCAGTTCATCATTGCATTTCGTGCTGAGGGGGATGAAAAAAATATTTCGATATATTCTGGTAAAGCATCTTT
In the case of B3, in the data set on Salmonella typhimurium, the “Sensitivity of S. typhimurium to antisense nucleic acid (growth inhibition, INDUCED vs. UNINDUCED)” value is listed as “+ (a positive in Table V below means that at least 10 fold more cells were required to observe a colony on the induced plate than on the non-induced plate)”. Also, in the data set with Enterobacter cloacae, the “Sensitivity of E. cloacae to antisense nucleic acid (growth inhibition, INDUCED vs. UNINDUCED)” value is “+ (a positive in Table V below means that at least 10 fold more cells were required to observe a colony on the induced plate than on the non-induced plate)”. The “Sensitivity of K. pneumoniae to antisense nucleic acid (growth inhibition, INDUCED vs. UNINDUCED)” value in the data set on Klebsiella pneumoniae is on record as “+ (a positive in Table V below means that at least 10 fold more cells were required to observe a colony on the induced plate than on the non-induced plate)”. Moreover, in the data set on Escherichia coli, the “effect of antisense expression” value is listed as “reduction in cell growth”.

B4: EcXA059: antisense clone insert encoding a portion of the ypjA gene of Escherichia coli (nucleic acid, listed as Escherichia coli)
DNA: NACCANGANTGGGACCCAAATGAAAATTGAACTGAAGATTACAATCAATTTAACANCAAGTTACACAACCAATTCAGACTCCGCCAGCCCACCAATCATGATTGGACGGTGTAAGGACAACACCAACAAAAACAGGAAGTTAGAAGTCTNAGCAAAACACCGACCAGACGGTGAGGAGACATAAAAGGATACGCAAAGGAGCCGCGGCTCCTGGTAACATGAAAGCCCACAGATGTGGGCTTTTTCGTTGATGGTCAGAACGACCAGTTCACACCAGCTACCGCGTTCCACGGGGATTCCACACCGGCACTATGGCTATACCCCACCCCAAGATGCCCGCTTAACGTACTGCTGAATGAGGCTTTAATACCTGCCTGGTATATTCCACGTCTGCCCGACAAATAATTGACGAAATTACCGNCACTATTCACTTTCACCCGGTTATCATCGACAAATTCTTTGCGCACAAGCCGNCTTCAGCCACGGNTCAACTTCCATACCGNTCCCCAGACGCATGTTGTAACTCAACGTTGCGCCCAGTTCACGATATATACTGCGGGTATCGACTGATTTCGATTTCATGCCATTGGATAAATGATATTCGGGGTTATCAGCGGTGAAACCCGTTNACGATGCATACNGGGTCAGGGTTCAATTACCATCGGTAAATCGCATTCCCGGTTTCAATGTGACCGCCAANCCCGTTGCTGTNGGTAACTGGCATTGGCGGGTTCANCGGTGGTAATTTTAACCTGGTACGNTACTTTTAAAACGGGTTAAGCTTTACCGAANACCGTNCANNATTGGAAACCCNCTTTTAATGGTTNCCCAACTNGGNN
modifications: misc_feature (1)...(839): n = A,T,C or G
notes: antisense clone insert encoding a portion of the ypjA gene of Escherichia coli
As to B4, in the data set with Salmonella typhimurium, the “Sensitivity of S. typhimurium to antisense nucleic acid (growth inhibition, INDUCED vs. UNINDUCED)” value was “+ (a positive in Table V below means that at least 10 fold more cells were required to observe a colony on the induced plate than on the non-induced plate)”. Moreover, the “score (log difference in growth for INDUCED vs. UNINDUCED antisense RNA expression)” value in the data set on Salmonella typhimurium (Salmonella typhimurium, IPTG induction) is recorded as 8; in the data set with Enterobacter cloacae (Enterobacter cloacae, IPTG induction) it was 8; in the data set with Klebsiella pneumoniae (Klebsiella pneumoniae, IPTG induction), greater than 7; in the data set with Escherichia coli (Escherichia coli, maximum 10 fold dilution at which a colony was observed), 8. For the same molecule, the “Sensitivity of E. cloacae to antisense nucleic acid (growth inhibition, INDUCED vs. UNINDUCED)” value with Enterobacter cloacae is given as “+ (a positive in Table V below means that at least 10 fold more cells were required to observe a colony on the induced plate than on the non-induced plate)”. The “Sensitivity of K. pneumoniae to antisense nucleic acid (growth inhibition, INDUCED vs. UNINDUCED)” value in the data set on Klebsiella pneumoniae is “+ (a positive in Table V below means that at least 10 fold more cells were required to observe a colony on the induced plate than on the non-induced plate)”.

B5: EcXA062: antisense clone insert, E. coli gene rep (nucleic acid, listed as Escherichia coli)
DNA: CGCGTGGAGAGTCATCAGTTGCACCTGATCCAGCTCTTCTTCACTCTCACCACGCTCNATCATGTCGCGCAAAGTAAAGCGCGTCACCACCTGGGTGAGCGTCATCGGCTCATCCAGTTCACTGCCTTCCAGCATCTCCGTCATCCAGCTAAACAGTTGGTTGACGTTCTTCATGCGCATTTCGGCGGCTTTCGGGCTGGGCGATGTTTCGTACAGCCAGGATTCATAATCCATGCCATGGATCAGATCACGCACCGCGGCAATCGGCTCCCGCTCCGCCAGACGCTGGATTTCTGCCAACCAGTGAGTGAAGCGGGTCAATGCTTCA
modifications: misc_feature (1)...(328): n = A,T,C or G
notes: antisense clone insert, E. coli gene rep
Consider B5, for which the “effect of antisense expression” value in the data set on Escherichia coli is given as “reduction in cell growth”.

B6: EcXA082: antisense clone insert, E. coli genes hybC; hybB (nucleic acid, listed as Escherichia coli)
DNA: TGCTTTGCTCGCCTCATGACGATTATGATCGTTTTGTTTTAAAGGAGGAAGTATCGGCAGTAGACGAATGAGTACGATGTAAGCGCAAATCTCAATAGCCACAAAACCAATAGAAATCAACAGTTCTTCCCAGGTCGGGAAGTA
As for B6, the “Sensitivity of E. cloacae to antisense nucleic acid (growth inhibition, INDUCED vs. UNINDUCED)” value with Enterobacter cloacae is “+ (a positive in Table V below means that at least 10 fold more cells were required to observe a colony on the induced plate than on the non-induced plate)”. Further, the “effect of antisense expression” value with Escherichia coli is listed as “reduction in cell growth”.
